Experimental data as given in patent publication US20120213809A1.

Tests used:
[1] = biological target: CCR7 on T2 hybridoma cells; experiment: cell-based or functional assay
[2] = biological target: CP-MVP recombinant vaults (rat MVP generated in Sf9 cells) (rat) (UniProt Q62667); experiment: densitometry of Coomassie stained SDS-PAGE gels of purified vault complexes
UniProt Q62667, sequence (Q62667 2-861 limits assumed): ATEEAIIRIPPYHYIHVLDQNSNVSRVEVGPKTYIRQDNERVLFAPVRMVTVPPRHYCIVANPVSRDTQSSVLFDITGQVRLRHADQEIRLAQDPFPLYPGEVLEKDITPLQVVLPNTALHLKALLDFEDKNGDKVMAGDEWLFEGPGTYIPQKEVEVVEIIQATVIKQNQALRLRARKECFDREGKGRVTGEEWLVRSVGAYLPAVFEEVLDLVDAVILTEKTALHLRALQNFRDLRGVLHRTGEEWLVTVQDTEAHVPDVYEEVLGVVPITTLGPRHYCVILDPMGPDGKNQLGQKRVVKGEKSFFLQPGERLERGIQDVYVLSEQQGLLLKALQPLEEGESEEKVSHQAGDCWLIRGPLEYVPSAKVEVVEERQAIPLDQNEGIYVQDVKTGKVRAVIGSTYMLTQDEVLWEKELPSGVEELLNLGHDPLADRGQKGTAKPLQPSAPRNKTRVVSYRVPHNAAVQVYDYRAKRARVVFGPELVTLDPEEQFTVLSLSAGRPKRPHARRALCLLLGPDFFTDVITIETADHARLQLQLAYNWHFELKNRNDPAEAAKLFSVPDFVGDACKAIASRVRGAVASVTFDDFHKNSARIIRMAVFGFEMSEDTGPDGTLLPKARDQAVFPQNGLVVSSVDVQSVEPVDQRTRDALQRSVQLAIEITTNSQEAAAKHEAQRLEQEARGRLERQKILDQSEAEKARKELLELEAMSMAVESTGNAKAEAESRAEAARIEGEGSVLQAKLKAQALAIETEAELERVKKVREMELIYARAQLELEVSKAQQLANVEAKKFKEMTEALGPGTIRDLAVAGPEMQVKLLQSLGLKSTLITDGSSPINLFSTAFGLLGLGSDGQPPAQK

CCL-21 vault complex (CP-MVP vaults with packaged mouse CCL-21-mCherry-mINT), sequence (chain): as the sequence (Q62667 2-861 limits assumed) above
CCL-21 vault complex (CP-MVP vaults with packaged mouse CCL-21-mCherry-mINT), sequence (chain, part): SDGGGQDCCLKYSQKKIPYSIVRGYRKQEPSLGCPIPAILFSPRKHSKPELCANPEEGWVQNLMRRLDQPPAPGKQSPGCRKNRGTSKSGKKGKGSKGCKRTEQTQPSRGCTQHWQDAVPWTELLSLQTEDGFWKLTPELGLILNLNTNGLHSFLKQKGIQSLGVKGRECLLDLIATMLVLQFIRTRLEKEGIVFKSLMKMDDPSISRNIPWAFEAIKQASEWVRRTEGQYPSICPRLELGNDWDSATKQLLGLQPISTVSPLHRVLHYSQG

Row | % migration of T2 cells (dual-chamber chemotaxis assay) [1] | molecules of CCL-21-mINT protein per vault complex (molecules per vault complex) [2] | Substance
1 | < 2.5% | – | recombinant CCL-21 (R&D Systems) (ligand)
2 | – | 20 to 30 | mouse CCL-21-mCherry-mINT fusion protein
3 | > 7.5% | – | CCL-21 vault complex (CP-MVP vaults with packaged mouse CCL-21-mCherry-mINT)
